Assay results published in the DeepSol protein solubility set.

Test: soluble on expression in E. coli; label from the status in PepcDB or PDB records

Sequence	soluble on expression in E. coli
MGSDKIHHHHHHMKIGVFSVLFYDKNFEDMLDYVAESGLDMIEVGTGGNPGDKFCKLDELLENEDKRQAFMKSITDRGLQISGFSCHNNPISPDPIEAKEADETLRKTIRLANLLDVPVVNTFSGIAGSDDTAKKPNWPVTPWPTAYSEIYDYQWNEKLIPYWQDLAEFAKEQDVKIAIELHAGFLVHTPYTMLKLREATNEYIGANLDPSHLWWQGIDPIAAIRILGQANAIHHFHAKDTYINQENVNMYGLTDMQPYGNVATRAWTFRTVGYGHSPYVWADIISQLIINGYDYVLSIEHEDPIMSVEEGFQKACQTLKSVNIYDKPADMWWA	not soluble
MGSDKIHHHHHHMSGPAGLIVRMDGFNLPAGYLASDEARAISFAYDDRYIAAGGPPLSLSMPLEQVSFGDVTARAFFDNLLPENDQMQRVMDREGLARDDIVGLLSHLGADCSGAISCLPIGADPIKVPGVLSEDYELLAPGAIAEIARSLAERQRLPDTITDPSPVAGVQRKIALTHTPQGFAKPRPGRKVPTTHILKVPETRLRRDARLEAAAARLASALGLDVSIPEAIVIDGVDALLITRFDRVVRDGVVYRLHQEDFAQAMGLPATLKYQRNGAPGRQFDAQAIARVLDQTEAPALSRTAFLSATIFNLLIGNTDNHAKNHGLLYRQGRAPILAPLYDLLPSRMNLDFNDQLSFNIGAADHPDAITFDDMMAFFEVFGMRRAAAARFIENVIKPMIEALERATLGLAGERLKDMDDLIGRETEQLVEVLGLDVAVRERDYYPKVRHALAPS	not soluble
ALGAPDGVTQGASLSRSIQPLLDAHPGKTGLHVLEKGEESLLARAWLADHATETIDVQYFIWSTDNIGILASEALLRAAERGVRVRVLVDDLLIDAPPESLLALARHPRIDIRIYNPTMTVGTSKVKRLGNVVTGFRSVNQRMHDKTALFDGVVGITGGRNMADEYYDYDQEYTFRDRDILMLGPAVAEAEASFARFWESPLAVPVEKLLKKGMKKMT	not soluble
FSIAVTGATGQLGGLVIQHLMAAVPASQIIAIVRNVEKASTLADQGVEVRHGDYNQPESLQKAFAGVSKLLFISGPHYDNTLLIVQHANVVKAARDAGVKHIAYTGYAFAEESIIPLAHVHLATEYATRTTNIPYTFLRNALYTDFFVNEGLRASTESGAIVTNAGSGIVNSVTRNELALAAATVLTEEGHENKTYNLVSNQPWTFDELAQILSEVSGKKVVHQPVSFEEEKNFMVNAGVPEPFAEITAAIYDAISKGEASKTSDDLQKLIGSLTPLKETVKQALKM	soluble
MKKRQSCRSFDYSKPVSKEDLISILEAGRLSPSACNSQPYEVFVAQGEKAKIIADAKMGSFNKFIDDCNTFLVIAEDNYSLPAKIGSLIKKVDFKAIDIGILTANLVNAASALNLETCILGVFDEKRIQKLIERKKRIRLVIALGYPKEGYPLREKTRKDFDDNMHFLA	not soluble
MGSDKIHHHHHHMTIDLTPYLPSQGPKYLAIARALAEAIRQGELTPGTRLPPHRCLADALAVSVQTVSRAYAQAEKMGLVQARVGSGTWINTLDDSQEAEYLRSADLPTEGAPVDLSIAHPVCPPGHHLRFRETLREVADSAHPDAIDACRPIAGLAHQRERASHWLQETLGVPGTPDDRVLCNGAAHGVMLAIATLVQHGDVVLTEALTDHGLIALSRTLGLQLRGVAIDEQGVIPEALDAACRRYHPRAVCLTPTQHNPTGATMDADRRDAIAEVLARHGTWLIEDDTHALLEPPGLTPLTARLPRQSFHVTSLTKATVPGLRAGYLSVPRGQLHHTLPRLRATSWMATPLIFEIADRWLADGSVEALAEEQRQLLAERQQLTRSRLQGHVMASRPTGLHVWLALPRAWRAEELQQQALREGLAIATAQPFMVGQGAPPQRVRLSLGAENDLERFDQGLTILARLLGEAPPPMLQNV	not soluble
MGSDKIHHHHHHAAGLVVNDNDLRNDLAWLSDRGVIHLSLSTWPLSQEEIARALKKAKPSYSSEQVVLARINQRLSALKADFRVTGYTSTDQPGTPQGFGQTQPADSSLGLAFNNSGEWWDVHLQGNVEGGERISNGSRFNANGAYGAVKFWNQWLSFGQIPQWWGPGYEGSLIRGDAMRPMTGFLMQRAEQAAPETWWLRWVGPWQYQISASQMNQYTAVPHAKIIGGRFTFSPFQSLELGASRIMQWGGEGRPESFSSFWDGFTGHDNTGTDNEPGNQLAGFDFKFKLEPTLGWPVSFYGQMVGEDESGYLPSANMFLGGVEGHHGWGKDAVNWYVEAHDTRTNMSRTNYSYTHHIYKDGYYQQGYPLGDAMGGDGQLIAGKVELITEDNQRWSTRLVYAKVNPENQSINKAFPHADTLKGVQLGWSGDVYQSVRLNTSLWYTNANNSDSDDVGASAGIEIPFSL	not soluble
MNPSMKQKQEEIKENIKNSSVPRRTLKMIQPSASGSLVGRENELSAGLSKRKHRNDHLTSTTSSPGVIVPESSENKNLGGVTQESFDLMIKENPSSQYWKEVAEKRRKALYEALKENEKLHKEIEQKDNEIARLKKENKELAEVAEHVQYMAELIERLNGEPLDNFESLDNQEFDSEEETVEDSLVEDSEIGTCAEGTVSSSTDAKPCI	soluble
MRVAIVGTGIAGNAAAWALSQRYPVTVYERELRAGGHSHTVTVDYDGTTIPVDIGFIVYNQLNYPDLTAMFAHLGVETVESCMSFSVSADAGRFEWKGGGSNWLETADGLFAQRRNLLSPSYLQMLRHILVFNEKSVEDFKTGALAGLTLGDYFESRKFAPRLLTDYLAPMGAAIWSAPASQILDFPAENFVAFFNNHRLLHYERPIWRTVKGGSARYVEKLTSAFKDDMRLGAAVTSIERSPKGVIVRDSLGGLGVFDHVVIGAHSDQALAMLSDASDIERDILGSIGYAPNMVYLHRDPRLMPKRKRAWASWNFLRWQREGSPVNDVAVTYWMNRLQGIDADKPLFVSLNPPFEPAPELTFGRYACDHPQYTAKAFAAQRRVGELQGHRNTWFCGAWTGYGFHEDGLRSGLAVAEHLGAPVPWRGPPSEFREAAELEHHHHHH	soluble
MTVIQKSSPTVKGVKTTTSDCTERRHSSSSPCKMSQNGSSGYYEGDVLLDDDALVSMPEATLIECFGNLAVTKRPAHLRPPAAFCLPFVSMNNDLTSGHALKHITLTSVFDALHPYVAMPYINRMDICSAMNVYWIRNCLEAEQSDLFHRFALEMQVHLSACFGCRVVLDIYGSTRNGFGTRFCDVDMSLSFSPSPPSWATNSDRVMRAVAKALVDFPKAVDERYVNAKVPIVRFRSSDMDMEADISYKNDLALHNTQLLQQYCKWDPERLPTLGVWVKAWAKRSGVGDASKGSLSSYAWIVMLIHYLQQVEPIPVLPCLQEMNHQKSENVYVQGYNTYYWKFVDTARTRRCRASVVDLFVGFLDYYATYFDYSTNVIQMVSKKLEFKPDRWCKYPMCIADPFETDHNLAQGVDMPMFEYIRSCMEHSKKVFTDRRMRSEFLSGYGFDVDEFDARHRGEMNMEMASQFGEFLLHKCIMVKQAPNRQFRDRSMSQSTSISNTSSISSSG	soluble
MSEYRVNHEPVFMLASSPWRESSLWVEAFSRRYGRVALLARSARKRQSELRGVLVPFVPVSVSWYGSQELKTLHRAEWVGGWRQPQGRALFGGLYVNELVLKLTAREDPVPELYDALAEVMEAVCCKAAYIDDLRRFEWRLLNLLGVAPDLNRDGDGGTIAAGGTYLVRPETAVFPVGKGFAVPPHAAGVVAPGQSLIDLREGSFRTAESLQQALKITRLFIRHLLPEGLKSRQVLEQIRQFDRKETARETVPTSDGTASNAV	not soluble
MGSDKIHHHHHHMNKINRVAIVGGTHGNEFTGAFLVKKFQQFPEVIQKPSFETLTILGNPKAFEAGKRYIEKDLNRCFLTESLQNTNLSSYEDIRAKQIAGVLGAENKPNVDVVIDLHSTTANMGLSIILGNQDPFLLKLCAYLSDINPLVKVCYTIPEKGSNFLRSLNKLGFVIEVGAVAQGVLNAELFQKTEQLIYTILDYLEQYNRGNIPKINNLLALYKFTGTVDYPRNENGDIQGMIHPDIQFRDYEPLNPGDPLFLTLDGKAIAYEGTSTVYPIFINEAAYYEKGIAMLFTEKQLINPSS	not soluble
MELSSLTAVSPVDGRYGDKVSALRGIFSEYGLLKFRVQVEVRWLQKLAAHAAIKEVPAFAADAIGYLDAIVANFSEEDAARIKTIERTTNHDVKAVEYFLKEKVAEIPELHAVSEFIHFACTSEDINNLSHALMLKTARDEVILPYWRQLIDGIKDLAVQYRDIPLLSRTHGQPATPSTIGKEMANVAYRMERQHRQLNQVEILGKINGAVGNYNAHIAAYPEVDWHQFSEEFVTSLGIQWNPYTTQIEPHDYIAELFDCVARFNTILIDFDRDVWGYIALNHFKQKTIAGEIGSSTMPHKVNPIDFENSEGNLGLSNAVLQHLASKLPVSRWQRDLTDSTVLRNLGVGIGYALIAYQSTLKGVSKLEVNRDHLLDELDHNWEVLAEPIQTVMRRYGIEKPYEKLKELTRGKRVDAEGMKQFIDGLALPEEEKARLKAMTPANYIGRAITMVDELK	not soluble
MAGDPMSLKSYSTPTYWQRVKVACQYLFPQLPITRLAGWLAEQKWGMVTHFIIRIFAKQYNVNLAEAEKTNPADYTTFNEFFLRPLKENARPINQDDQAVCLPADGKISELGQINENRLLQAKGHYFTLETLLANDEEMAESFKNGSFITTYLSPRDYHRVHMPCDATLKKMIYVPGDLFSVNSFLAEHIPNLFARNERVICEFETAFGPMVQILVGATITASISTVWAGIINPPRSKDVVEYNYQTTGETAIHLKKGDEMGAFRLGSTVINLFPQATVELVSHLQAGVETRMGERFAKIIKLEHHHHHH	soluble
MSLMESWLIPAAPVTVVEEIKKSRFITMLAHTDGVEAAKAFVESVRAEHPDARHHCVAWVAGAPDDSQQLGFSDDGEPAGTAGKPMLAQLMGSGVGEITAVVVRYYGGILLGTGGLVKAYGGGVNQALRQLTTQRKTPLTEYTLQCEYHQLTGIEALLGQCDGKIINSDYQAFVLLRVALPAAKVAEFSAKLADFSRGSLQLLAIEEEGGSHHHHHH	soluble
MNNQKQQKPTLSGQRFKTRKRDEKERFDPTQFQDCIIQGLTETGTDLEAVAKFLDASGAKLDYRRYAETLFDILVAGGMLAPGGTLADDMMRTDVCVFAAQEDLETMQAFAQVFNKLIRRYKYLEKGFEDEVKKLLLFLKGFSESERNKLAMLTGVLLANGTLNASILNSLYNENLVKEGVSAAFAVKLFKSWINEKDINAVAASLRKVSMDNRLMELFPANKQSVEHFTKYFTEAGLKELSEYVRNQQTIGARKELQKELQEQMSRGDPFKDIILYVKEEMKKNNIHFMKAFQKIVVLFYKAEVLSEEPILKWYKDAHVAKGKSVFLEQMKKFVEWLKNAEEESESEAEEGD	not soluble
LSLLGVGAASLYVSDSPQPKMAQSQHDTTIDLSSQKDFFEYSLSGLGEHSLEEIQENIEESISQQNSLGIDVELFQTYLAYKRALSKLEPLEDTTLSLSQLQRLNEAILNLQLEYFNDQQISQLFDEENRLRQLAIEKLVIKTYEQDSDSQQLLLNQALSEQPEYIQKSERNNALTRQLDQTELLSSQDKYLARVELVGEEGAQRLQKLDEQRATFEIELTNYLEKRADILNDEFLDSEQKQLEIANLRKQSFETTQWRRIEALERIHDS	not soluble
MIPLKYLQAYPASLQDQVRQLIAENRLGEYLERRYPGRHDVQSDKALYAYTMNLKQEHLRNAPGLDKVLYDNKLDVVQRALGLHTAISRVQGGKLKAKKEIRVASLFKDAAPEFLRMIVVHELAHLKESEHNKAFYQLCQYMLPDYHQLEFDLRVYLTWKSLAAALEHHHHHH	not soluble
VLQLAEQIDVVIFDLNGTLTTGVPVVKEYAVLNDADLSSEHFLSICNVLEGQSKHPFGKAIQSFTQGINKQKFNIANLDHSNHSGISAEINGIQYTIGSKTLMQEIGISTSSLENQMNLVAGDSLVFLARNKQLLGYLVITDPLRKDAKQTVDALIKMGKEVHLCTGADEKTAYRYAQALGIKKVHANCVATTINTEDRSKPVYIKSLQNQGLKVAMIGDAANDANALAASDFGIAVLSQDSDEITQQHASAIIQSGTILPIANAFAISKQTVNNINQNLLISLGYNLTTV	not soluble
